2 sequences from paper PMC4605297 can be followed below.

Usually Ki stands for the equilibrium dissociation constant of an inhibitor or competing ligand from its target.

This data set concerns the target T1, SsOGT wild type (Sulfolobus solfataricus) (UniProt Q97VW7).
T1 sequence: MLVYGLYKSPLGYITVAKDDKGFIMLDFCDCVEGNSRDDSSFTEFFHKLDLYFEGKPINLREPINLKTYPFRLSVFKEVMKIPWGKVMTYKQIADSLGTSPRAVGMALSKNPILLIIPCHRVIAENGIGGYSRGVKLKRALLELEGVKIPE
Nature of the data set: competition. Conditions: EMSA: 0-25 uM protein, 0.2 uM probe, 37 C 10 min, 10 ul, buffer as ref. 17, 8% native PAGE in 1X TBE pH 8.3, competition: BG-VG assay, 50 C under ref. …. (In EMSA bound probe runs differently from free probe, usually more slowly.)

For “GGACACTGTACGTTAAGGCGGATCGAATTAGGATTAA / GGTTAATCCTAATTCGATCGCCTTAACGTACAGTGT [ds-UPm]”, the Ki (O6-methylguanine at position 21 of strand 1) was determined as 0.28 µM. Sequence “GGCAGTAGGCCTAGCATGACAATCTGCATTGGTGATCACGG / CGCTCATCCACAATGCAGATTGTCATGCTAGGCCTACTGCC [ds-Fwdm26]” displayed a Ki (O6-methylguanine at position 26 of strand 1) of 0.83 µM.
